Results on two molecules are retold here after publication doi:10.1101/461806 (bioRxiv, 2018).

The target of series [1] is T1, Cul3NΔ22 (human Cul3 N-terminal domain, residues 23-388, I342R L346D) (human, UniProt Q13618 23-388, I342R | L346D). Briefly: ITC. For orientation: ITC needs no label: the signal is the heat of the interaction.
Series [2] addresses Cul3N (human Cul3 N-terminal domain, residues 1-388, I342R L346D) (human, UniProt Q13618 1-388, I342R | L346D). Briefly: ITC.
In series [3] the target is T1, Cul3NΔ22 (human Cul3 N-terminal domain, …). Briefly: SEC-MALS. (In general: SEC sorts molecules by how far they enter the pores of the column.)
The series “SEC-MALS” concerns the molecule itself. Briefly: SEC-MALS.

T1 sequence (Q13618 23-388 I342R/L346D): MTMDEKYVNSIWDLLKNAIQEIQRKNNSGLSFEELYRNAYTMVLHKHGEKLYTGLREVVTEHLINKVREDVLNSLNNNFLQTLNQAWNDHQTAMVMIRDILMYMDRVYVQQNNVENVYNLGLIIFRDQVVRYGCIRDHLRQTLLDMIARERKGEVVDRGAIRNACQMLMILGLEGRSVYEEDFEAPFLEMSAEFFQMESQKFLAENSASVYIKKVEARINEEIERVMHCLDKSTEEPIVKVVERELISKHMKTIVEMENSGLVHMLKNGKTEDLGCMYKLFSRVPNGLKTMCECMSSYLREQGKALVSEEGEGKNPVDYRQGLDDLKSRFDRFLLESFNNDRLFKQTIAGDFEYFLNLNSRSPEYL
Sequence of Cul3N (human Cul3 N-terminal domain, residues 1-388, I342R L346D) (Q13618 1-388 I342R/L346D): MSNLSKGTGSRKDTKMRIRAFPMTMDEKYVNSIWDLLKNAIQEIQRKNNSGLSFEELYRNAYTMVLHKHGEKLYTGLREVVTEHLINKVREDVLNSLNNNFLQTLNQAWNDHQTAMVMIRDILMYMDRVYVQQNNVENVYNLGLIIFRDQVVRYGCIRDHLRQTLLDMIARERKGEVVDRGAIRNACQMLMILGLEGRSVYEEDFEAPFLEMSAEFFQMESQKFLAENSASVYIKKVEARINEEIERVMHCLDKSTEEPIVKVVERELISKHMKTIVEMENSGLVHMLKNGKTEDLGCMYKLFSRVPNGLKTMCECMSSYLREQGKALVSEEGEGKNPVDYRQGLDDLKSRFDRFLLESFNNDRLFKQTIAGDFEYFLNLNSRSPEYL

B1: KLHL3-BB (human KLHL3 BTB-BACK, residues 24-276) (domain or fragment)
chain: RTITVNPAHMGKAFKVMNELRSKQLLCDVMIVAEDVEIEAHRVVLAACSPYFCAMFTGDMSESKAKKIEIKDVDGQTLSKLIDYIYTAEIEVTEENVQVLLPAASLLQLMDVRQNCCDFLQSQLHPTNCLGIRAFADVHTCTDLLQQANAYAEQHFPEVMLGEEFLSLSLDQVCSLISSDKLTVSSEEKVFEAVISWINYEKETRLEHMAKLMEHVRLPLLPRDYLVQTVEEEALIKNNNTCKDFLIEAMKYH
With B1, in series [1], the dH is -18.9 kcal/mol.

B2: A55BB (A55 BTB-BACK domain, residues 1-250) (domain or fragment)
chain: MNNSSELIAVINGFRNSGRFCDISIVINDERINAHKLILSGASEYFSILFSNNFIDSNEYEVNLSHLDYQSVNDLIDYIYGIPLSLTNDNVKYILSTADFLQIGSAITECENYILKNLCSKNCIDFYIYADKYNNKKIESASFNTILQNILRLINDENFKYLTEESMIKILSDDMLNIKNEDFAPLILIKWLESTQQSCTVELLRCLRISLLSPQVIKSLYSHQLVSSIYECITFLNNIAFLDESFPRYH
With B2, the figures for the Kd in series [1] and in series [2] were 3 nM and below 1 nM, respectively. In series [1], this molecule registered a dH of -10.2 kcal/mol. Further, the “stoichiometry N” value in series [1] is 1; in series [2], 1; in series [3], 1 A55BB per Cul3NΔ22 (2:2 complex); in the series “SEC-MALS” it was 2.

Usually Kd stands for the free concentration of one partner at which half of the binding sites on the other are occupied at equilibrium, for simple one-to-one binding. The low end stands for tighter binding, the high end for weaker binding. What is called stoichiometry N is the number of molecules, sites or subunits per partner or assembly.
